Data from patent US20170253650A1 (FRAUNHOFER GESELLSCHAFT ZUR FOERDERUNG DER ANGEWANDTEN …, published 2017).

How the values were obtained:
[1] = biological target: MSP4 on P. falciparum 3D7A parasites (mature schizonts / merozoite surface) (Plasmodium falciparum 3D7A); test: cell-based or functional assay
[2] = biological target: MSP4 on P. falciparum K1 parasites (multi-drug-resistant strain) (Plasmodium falciparum K1); test: cell-based or functional assay

B1: Gb-2.44 (enterokinase-activated EGb-2.44scFv fusion protein: granzyme B R201K fused to MSP4-specific scFv 2.44) (other)
chain: SRHIDDDDKIIGGHEAKPHSRPYMAFLMIWDQKSLKRCGGFLIRDDFVLTAAHCWGSSINVTLGAHNIKEQEPTQQFIPVKRAIPHPAYNPKNFSNDIMLLQLERKAKRTRAVQPLRLPSNKAQVKPGQTCSVAGWGQTAPLGKHSHTLQEVKMTVQEDRKCESDLRHYYDSTIELCVGDPEIKKTSFKGDSGGPLVCNKVAQGIVSYGKNNGMPPRACTKVSSFVHWIKKTMKRYAEHEGDAAQPAMADVQLQESGPGLVKPSQSLSLTCTVTGYSITSDFAWNWIRQFPGNRLEWMGYMGYTGSTSYNPSLRGRISITRDTSKNQFFLQLNSVTTEDTATYYCARGDYYGSRGYFDVWGAGTTVTVSSGGGGSGGGGSSGGGSGGGGSEIVLTQSPALMAASPGEKVTITCSVSSSIRSSNLHWYQQKSDTSPKPWIYGTSNLASGVPVRFSGSGSGTSYSLTISTMEAEDAATYYCQQWSSYPFTFGSGTKLEIKAAANSSLGSGWSHPQFEKTGHHHHHHHHGGQ
Q: What does the source list for B1?
A: half maximal inhibitory concentration (IC50-value), 48-h drug susceptibility assay on P. falciparum 3D7A (PfHRP2 ELISA) [1]: 176 nM; IC50-value, 48-h drug susceptibility assay on multi-drug resistant strain P. falciparum K1 (PfHRP2 ELISA) [2]: 247 nM
